Assay results as given in publication PMC8161422.
Each block holds one substance with its values, some of them ahead of it.

What was measured:
His50 = His50 (UniProt position 50, KEGVVHGVATV); test: NMR; settings: No added salt is implied by the Table 1 footnote 'in absence of salt'. Ionic strength is otherwise not stated.; 20 mM sodium phosphate buffer, pH 7 (as described in this article); protein 250 µM; free monomer, intrinsically disordered, no fibrils; cited from earlier work
[1] = biological target: alpha-synuclein, wild type (UniProt P37840); test: NMR pH titration (quoted from Croke et al. 2011, ref 30); Asp and Glu values averaged by the present authors; settings: in absence of salt (Table 1 footnote d), not stated for the Asp/Glu values ('in buffer'); cited from earlier work
[2] = biological target: alpha-synuclein, wild type (UniProt P37840); test: pH electrode (Orion Star A211 meter, Orion ROSS combination micro electrode) before and after fibril formation; closed-system proton balance; settings: fibril formation at 37 °C, temperature of the pH reading not stated, no added salt (pure water; protein and its counter-ions only), none (Milli-Q water; the protein is the only buffer)
[3] = biological target: alpha-synuclein, wild type (UniProt P37840); test: NMR pH titration (quoted from Croke et al. 2011, ref 30); settings: 20 mM sodium phosphate buffer, pH 7 (so in the source); cited from earlier work
[4] = biological target: alpha-synuclein 5Q mutant E114Q;E123Q;E126Q;E137Q;E139Q (UniProt P37840); test: pH electrode (Orion Star A211 meter, Orion ROSS combination micro electrode) before and after fibril formation; closed-system proton balance; settings: fibril formation at 37 °C, temperature of the pH reading not stated, no added salt (pure water; protein and its counter-ions only), none (Milli-Q water; the protein is the only buffer)

Substance: alpha-synuclein (Homo sapiens)
pKa (His50): 6.78

protons taken up per monomer during fibril formation ([2]; pH 5.6-6.5): about 2 protons per monomer
apparent pKa(ave) of acidic groups in fibrils, average over all acidic groups (Asp, Glu and the C-terminus) of alpha-synuclein ([2]; pH 6.5): 5.4 pH units
Substance: alpha-synuclein, wild type
pKa in C-terminal tail of α-synuclein (Asp), average of Asp residues in the C-terminal tail of monomeric alpha-synuclein [1]: 4.2 pH units
pKa in C-terminal tail of α-synuclein (Glu), average of Glu residues in the C-terminal tail of monomeric alpha-synuclein [1]: 4.6 pH units
pKa in N-terminal and NAC region of α-synuclein (Asp), average of Asp residues in the N-terminal and NAC regions (first 100 residues) of monomeric alpha-synuclein [1]: 3.6 pH units
pKa in N-terminal and NAC region of α-synuclein (Glu), average of Glu residues in the N-terminal and NAC regions (first 100 residues) of monomeric alpha-synuclein [1]: 4.2 pH units
pKa in full length α-synuclein monomer (Asp), average of all Asp residues of monomeric alpha-synuclein [1]: 4 pH units
pKa in full length α-synuclein monomer (Glu), average of all Glu residues of monomeric alpha-synuclein [1]: 4.4 pH units
change of sample pH on fibril formation ([2]; pH 5.6-6.5): pH increases by 0.9 units, from pH 5.6 (monomer) to pH 6.5 (fibrils), 20 uM in water
pKa, His50 of alpha-synuclein (monomer) [3]: 6.78 pH units

apparent pKa(ave) of acidic groups in fibrils, average over the remaining acidic groups (five fewer than wild type) of the 5Q mutant ([4]; pH 6.6): 4.7 pH units
Substance: alpha-synuclein 5Q mutant E114Q;E123Q;E126Q;E137Q;E139Q
change of sample pH on fibril formation ([4]; pH 6.4-6.6): pH increases by only 0.2 units, from pH 6.4 (monomer) to pH 6.6 (fibrils), 20 uM in water
